# Assay results: PMC5510004, “Recruitment and positioning determine the specific role of the XPF‐ERCC1 endonuclease in interstrand crosslink repair”
# T1: XPF G314E;ERCC1 wild type (hsERCC1) (Xenopus laevis;Homo sapiens?, UniProt A0A8J0PXV9;P07992 1-897;1-297, G314E|)
# T1 sequence 1: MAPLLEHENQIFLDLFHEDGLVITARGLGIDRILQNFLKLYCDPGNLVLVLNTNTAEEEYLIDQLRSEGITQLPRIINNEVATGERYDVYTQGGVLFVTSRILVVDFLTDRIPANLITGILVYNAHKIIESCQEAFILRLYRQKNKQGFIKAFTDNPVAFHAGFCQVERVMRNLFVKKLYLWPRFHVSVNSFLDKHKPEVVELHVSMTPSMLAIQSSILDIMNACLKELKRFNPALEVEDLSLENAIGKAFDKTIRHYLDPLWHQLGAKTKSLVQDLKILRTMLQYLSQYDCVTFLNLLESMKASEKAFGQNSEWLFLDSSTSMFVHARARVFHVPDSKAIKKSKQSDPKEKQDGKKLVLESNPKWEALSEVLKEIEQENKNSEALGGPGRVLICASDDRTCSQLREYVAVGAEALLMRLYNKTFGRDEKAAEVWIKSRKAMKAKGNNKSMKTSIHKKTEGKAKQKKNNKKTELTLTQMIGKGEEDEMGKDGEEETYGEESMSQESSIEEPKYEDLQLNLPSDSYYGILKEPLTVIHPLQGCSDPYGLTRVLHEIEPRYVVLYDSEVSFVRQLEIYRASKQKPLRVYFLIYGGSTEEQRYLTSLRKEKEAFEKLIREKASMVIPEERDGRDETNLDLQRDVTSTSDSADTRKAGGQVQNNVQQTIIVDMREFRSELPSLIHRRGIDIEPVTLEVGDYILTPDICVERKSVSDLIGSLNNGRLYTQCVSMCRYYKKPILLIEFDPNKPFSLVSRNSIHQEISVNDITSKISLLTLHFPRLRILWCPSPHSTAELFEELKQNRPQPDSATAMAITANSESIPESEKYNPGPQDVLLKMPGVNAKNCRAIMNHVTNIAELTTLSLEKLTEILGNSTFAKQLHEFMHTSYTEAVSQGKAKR
# T1 sequence 2: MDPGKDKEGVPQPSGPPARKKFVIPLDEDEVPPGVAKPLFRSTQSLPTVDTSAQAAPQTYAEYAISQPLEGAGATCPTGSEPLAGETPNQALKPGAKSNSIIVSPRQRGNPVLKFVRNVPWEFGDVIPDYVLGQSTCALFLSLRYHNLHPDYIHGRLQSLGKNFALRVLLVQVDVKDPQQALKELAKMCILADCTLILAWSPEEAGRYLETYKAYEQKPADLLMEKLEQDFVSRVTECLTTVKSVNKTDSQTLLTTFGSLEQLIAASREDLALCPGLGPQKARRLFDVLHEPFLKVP
# T2: XPF wild type (xlXPF);ERCC1 wild type (hsERCC1) (Xenopus laevis;Homo sapiens?, UniProt A0A8J0PXV9;P07992 1-897;1-297, |)
# T2 sequence 1: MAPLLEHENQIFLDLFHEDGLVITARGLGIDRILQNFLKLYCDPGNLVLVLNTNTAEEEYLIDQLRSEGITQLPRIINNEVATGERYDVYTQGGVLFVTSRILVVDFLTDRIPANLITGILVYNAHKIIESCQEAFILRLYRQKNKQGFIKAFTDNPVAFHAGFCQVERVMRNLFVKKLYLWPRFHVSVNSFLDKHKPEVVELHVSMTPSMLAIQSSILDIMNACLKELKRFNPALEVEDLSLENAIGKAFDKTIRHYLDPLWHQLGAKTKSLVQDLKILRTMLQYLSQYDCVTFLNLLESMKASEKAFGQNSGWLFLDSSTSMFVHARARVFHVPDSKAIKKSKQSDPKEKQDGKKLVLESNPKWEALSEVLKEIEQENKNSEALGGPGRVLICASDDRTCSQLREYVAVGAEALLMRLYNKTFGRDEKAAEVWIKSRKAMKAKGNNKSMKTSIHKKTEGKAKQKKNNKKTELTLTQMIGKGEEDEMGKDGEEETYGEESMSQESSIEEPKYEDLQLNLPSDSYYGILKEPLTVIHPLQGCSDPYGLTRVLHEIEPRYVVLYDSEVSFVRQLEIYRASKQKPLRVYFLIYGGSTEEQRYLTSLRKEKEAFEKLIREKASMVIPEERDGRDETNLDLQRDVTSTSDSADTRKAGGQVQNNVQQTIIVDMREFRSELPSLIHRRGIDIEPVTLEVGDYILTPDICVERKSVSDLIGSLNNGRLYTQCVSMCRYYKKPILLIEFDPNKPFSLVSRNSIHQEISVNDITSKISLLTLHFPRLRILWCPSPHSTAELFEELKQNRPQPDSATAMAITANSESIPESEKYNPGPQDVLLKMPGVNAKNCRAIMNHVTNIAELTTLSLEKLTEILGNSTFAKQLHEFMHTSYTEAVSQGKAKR
# T2 sequence 2: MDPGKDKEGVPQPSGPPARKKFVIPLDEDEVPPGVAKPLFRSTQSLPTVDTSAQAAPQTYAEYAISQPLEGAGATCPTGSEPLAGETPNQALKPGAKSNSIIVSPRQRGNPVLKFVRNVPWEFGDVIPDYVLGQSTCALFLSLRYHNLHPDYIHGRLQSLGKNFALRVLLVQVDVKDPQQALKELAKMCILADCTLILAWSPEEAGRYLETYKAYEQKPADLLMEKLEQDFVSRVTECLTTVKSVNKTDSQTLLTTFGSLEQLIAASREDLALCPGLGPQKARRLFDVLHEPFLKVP
# Columns and labels:
# [1] = target: T1, XPF G314E;ERCC1 wild type (hsERCC1); assay: fluorescence anisotropy; 2 mM Ca2+; comparable to wild type; 25 mM Hepes pH 8.0, 15% glycerol, 0.1 mg/ml BSA, 2 mM CaCl2, 10 nM DNA, 1 h at room temperature; conditions: protein: recombinant;recombinant; tags: FLAG;His; copies: 1;1; label: 5'-FAM on F1; three strands 1:1:1
# [2] = target: T2, XPF wild type (xlXPF);ERCC1 wild type …; assay: fluorescence anisotropy; 2 mM Ca2+; 25 mM Hepes pH 8.0, 15% glycerol, 0.1 mg/ml BSA, 2 mM CaCl2, 10 nM DNA, 1 h at room temperature; conditions: protein: recombinant;recombinant; tags: FLAG;His; copies: 1;1; label: 5'-FAM on F1; three strands 1:1:1
binder,measurement,setting,value
3' flap DNA substrate (F1+F2+F3) (dsDNA) DNA 1: CGCGATGCGGATCCAA DNA 2: CCTAGACTTAAGAGGCCAGACTTGGATCCGCATCGC DNA 3: GGCCTCTTAAGTCTAGG,binding result,[1],binds
same,binding result,[2],binds
